Reference: the supplement of paper PMC7125110
± gives the standard error. Variants at the floor of the assay were thinned out.

B1: glmS ribozyme (parent)
chain: AUAAAAGCGCCAGAACUACAGAAAUGUAGUUGACGAGGAGGAGGUUUAUCGAAUUUUCGGCGGAUGCCUCCAAA

What was measured:
Settings in all cases: with glucosamine-6-phosphate
glucosamine-6-phosphate [1] = variants of: B1; assay: self-cleavage kobs at 40 uM GlcN6P; higher = faster cleavage; RNA array
Procedure, shortened: (§1)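 kobs was derived by fitting per-tile medians to one- or two-exponential decays after normalising signals to baseline and to non-cleaving reference variants. Those signals came from barcoded ribozyme variants transcribed in situ by E. coli RNA polymerase on sequenced MiSeq chips, followed through a hybridised Cy3 probe at 37 °C and imaged over ~14 h. Glucosamine-6-phosphate (40 μM to 10 mM) in HEPES/KCl/Mg(OAc)2 buffer was flowed in. Weighted Michaelis–Menten fits across concentrations then gave kcat and KM.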

glucosamine-6-phosphate [2] = variants of: B1; assay: self-cleavage kobs at 2500 uM GlcN6P; higher = faster cleavage; RNA array
Procedure, shortened: as §1

glucosamine-6-phosphate [3] = variants of: B1; assay: self-cleavage kobs at 10000 uM GlcN6P; higher = faster cleavage; RNA array
Procedure, shortened: as §1

glucosamine-6-phosphate [4] = variants of: B1; assay: self-cleavage kobs at 160 uM GlcN6P; higher = faster cleavage; RNA array
Procedure, shortened: as §1

glucosamine-6-phosphate [5] = variants of: B1; assay: self-cleavage kobs at 640 uM GlcN6P; higher = faster cleavage; RNA array
Procedure, shortened: as §1

| Variant | self-cleavage kobs at 40 uM GlcN6P (glucosamine-6-phosphate [1]) [s⁻¹] | self-cleavage kobs at 2500 uM GlcN6P (glucosamine-6-phosphate [2]) [s⁻¹] | self-cleavage kobs at 10000 uM GlcN6P (glucosamine-6-phosphate [3]) [s⁻¹] | self-cleavage kobs at 160 uM GlcN6P (glucosamine-6-phosphate [4]) [s⁻¹] | self-cleavage kobs at 640 uM GlcN6P (glucosamine-6-phosphate [5]) [s⁻¹] |
| --- | --- | --- | --- | --- | --- |
| U55G C71G | 7.4e-05 ± 1.7e-05 | 0.000704 ± 0.00019 | 0.00121 ± 0.00035 | – | – |
| G51C A52G | < 1e-05 | < 1e-05 | < 1e-05 | < 1e-05 | – |
| G40U U55G | 0.000102 ± 1.4e-05 | 0.00142 ± 0.00023 | 0.00228 ± 0.00046 | 0.000149 ± 2.2e-05 | 0.000543 ± 9.9e-05 |
| G41A C50A C67G | < 1e-05 | – | < 1e-05 | – | – |
| U46A G60C | < 1e-05 | < 1e-05 | < 1e-05 | < 1e-05 | < 1e-05 |
| U46G U54C | 0.00019 ± 3.4e-05 | – | 0.00687 ± 0.0018 | – | – |
| G41A U69A | < 1e-05 | – | – | – | < 1e-05 |
| C50G G62U C68G | 0.000123 ± 3.2e-05 | – | 9.97e-05 ± 2.5e-05 | – | – |
| G44U A48G | < 1e-05 | < 1e-05 | < 1e-05 | < 1e-05 | < 1e-05 |
| A53U C67G | 3.3e-05 ± 8.7e-06 | 0.000628 ± 0.0001 | 0.00224 ± 0.00024 | 7.53e-05 ± 2e-05 | 0.000519 ± 0.00012 |
| G43U G44A | < 1e-05 | < 1e-05 | < 1e-05 | < 1e-05 | < 1e-05 |
| A42G U69A | 0.000758 ± 0.00012 | 0.000947 ± 0.0003 | – | 0.000231 ± 0.00011 | 0.00094 ± 0.00029 |
| G43C U46G | < 1e-05 | < 1e-05 | – | < 1e-05 | < 1e-05 |
| G43C U46C | < 1e-05 | < 1e-05 | – | < 1e-05 | < 1e-05 |
| U54A C61U G62A | < 1e-05 | – | < 1e-05 | – | < 1e-05 |
| C50G U56G C61A | 8.29e-05 ± 2e-05 | 0.00021 ± 4.8e-05 | 6.89e-05 ± 1.6e-05 | – | 0.000426 ± 0.00014 |
| U47A U54C C71U | 0.000577 ± 0.00018 | – | 0.0135 ± 0.0039 | – | – |
| A53G U69C | 0.000897 ± 0.00014 | 0.002 ± 0.00044 | 0.00674 ± 0.0018 | 0.000469 ± 8.4e-05 | 0.00235 ± 0.00048 |
